The source of these data is paper PMC4204861.

For this assay, the target named is rEag1-Δeag (rat).

In the case of “rEag1 eag domain fragment (domain or fragment)”, the slow phase of inactivation of rEag1-Δeag (10- or 40-sec test pulses), two-electrode voltage clamp in Xenopus oocytes, co-expression (% reduction in current amplitude) was 60.
